Patent publication US20140072613A1 (published 2014)

T1: NEK3(h) (human, UniProt P51956 1-506, limits assumed)
T1 sequence (looked up): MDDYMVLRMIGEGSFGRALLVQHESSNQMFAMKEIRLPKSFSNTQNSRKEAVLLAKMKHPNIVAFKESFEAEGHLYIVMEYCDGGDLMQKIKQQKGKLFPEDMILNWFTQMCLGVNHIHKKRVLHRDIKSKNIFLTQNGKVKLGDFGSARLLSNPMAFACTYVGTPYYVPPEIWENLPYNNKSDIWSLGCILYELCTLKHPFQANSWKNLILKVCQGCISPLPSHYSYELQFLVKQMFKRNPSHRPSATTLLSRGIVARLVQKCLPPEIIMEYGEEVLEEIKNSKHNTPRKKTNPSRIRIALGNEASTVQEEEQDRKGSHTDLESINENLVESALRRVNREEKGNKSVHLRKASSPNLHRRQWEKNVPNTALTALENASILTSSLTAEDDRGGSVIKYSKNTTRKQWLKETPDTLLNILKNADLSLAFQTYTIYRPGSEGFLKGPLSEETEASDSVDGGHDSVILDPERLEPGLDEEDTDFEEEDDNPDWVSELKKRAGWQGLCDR

T2: EphA4(h) (human, UniProt P54764 570-986, limits assumed)
T2 sequence (looked up): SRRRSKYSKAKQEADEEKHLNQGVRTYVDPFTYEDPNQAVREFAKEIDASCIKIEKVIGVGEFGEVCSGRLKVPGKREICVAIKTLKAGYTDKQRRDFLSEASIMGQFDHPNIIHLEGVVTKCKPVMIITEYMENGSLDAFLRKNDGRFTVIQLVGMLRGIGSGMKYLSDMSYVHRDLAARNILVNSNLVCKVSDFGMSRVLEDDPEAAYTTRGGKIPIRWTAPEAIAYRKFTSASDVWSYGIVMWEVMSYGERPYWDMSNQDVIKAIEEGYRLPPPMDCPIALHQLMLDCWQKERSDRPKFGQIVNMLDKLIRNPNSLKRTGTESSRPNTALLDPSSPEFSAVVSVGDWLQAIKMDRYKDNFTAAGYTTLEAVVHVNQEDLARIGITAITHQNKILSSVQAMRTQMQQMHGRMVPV

T3: PrKX(h) (human, UniProt P51817 1-358)
T3 sequence (looked up): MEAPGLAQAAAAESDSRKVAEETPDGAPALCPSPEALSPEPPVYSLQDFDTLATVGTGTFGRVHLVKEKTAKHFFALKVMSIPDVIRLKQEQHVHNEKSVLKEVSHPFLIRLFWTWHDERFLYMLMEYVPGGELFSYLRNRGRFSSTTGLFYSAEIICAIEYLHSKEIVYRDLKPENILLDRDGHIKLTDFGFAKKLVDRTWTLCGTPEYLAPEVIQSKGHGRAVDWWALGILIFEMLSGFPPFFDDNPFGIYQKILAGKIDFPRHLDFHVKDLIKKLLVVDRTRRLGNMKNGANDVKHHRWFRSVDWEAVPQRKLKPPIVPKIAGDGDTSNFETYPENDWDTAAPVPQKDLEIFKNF

T4: ARK5(h) (human, UniProt O60285 1-661, limits assumed)
T4 sequence (looked up): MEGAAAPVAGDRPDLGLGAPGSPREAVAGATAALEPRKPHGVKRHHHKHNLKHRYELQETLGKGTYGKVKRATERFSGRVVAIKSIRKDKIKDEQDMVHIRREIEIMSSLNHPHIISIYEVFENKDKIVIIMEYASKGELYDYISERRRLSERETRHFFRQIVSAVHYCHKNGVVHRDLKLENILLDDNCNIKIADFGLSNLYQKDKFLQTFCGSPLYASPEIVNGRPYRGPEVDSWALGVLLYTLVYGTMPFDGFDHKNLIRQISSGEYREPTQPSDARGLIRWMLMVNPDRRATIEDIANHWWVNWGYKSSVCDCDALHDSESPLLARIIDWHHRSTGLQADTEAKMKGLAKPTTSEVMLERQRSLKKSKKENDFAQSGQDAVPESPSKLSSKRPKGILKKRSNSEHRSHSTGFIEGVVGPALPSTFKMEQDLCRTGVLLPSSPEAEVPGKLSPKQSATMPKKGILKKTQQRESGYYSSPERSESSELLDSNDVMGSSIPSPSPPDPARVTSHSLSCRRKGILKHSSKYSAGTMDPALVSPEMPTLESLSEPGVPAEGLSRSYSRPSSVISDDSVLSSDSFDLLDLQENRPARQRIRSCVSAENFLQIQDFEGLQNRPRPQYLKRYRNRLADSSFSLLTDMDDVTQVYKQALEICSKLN

T5: Ret(V804M)(h) (human, UniProt P07949 658-1114, limits assumed)
T5 sequence (looked up): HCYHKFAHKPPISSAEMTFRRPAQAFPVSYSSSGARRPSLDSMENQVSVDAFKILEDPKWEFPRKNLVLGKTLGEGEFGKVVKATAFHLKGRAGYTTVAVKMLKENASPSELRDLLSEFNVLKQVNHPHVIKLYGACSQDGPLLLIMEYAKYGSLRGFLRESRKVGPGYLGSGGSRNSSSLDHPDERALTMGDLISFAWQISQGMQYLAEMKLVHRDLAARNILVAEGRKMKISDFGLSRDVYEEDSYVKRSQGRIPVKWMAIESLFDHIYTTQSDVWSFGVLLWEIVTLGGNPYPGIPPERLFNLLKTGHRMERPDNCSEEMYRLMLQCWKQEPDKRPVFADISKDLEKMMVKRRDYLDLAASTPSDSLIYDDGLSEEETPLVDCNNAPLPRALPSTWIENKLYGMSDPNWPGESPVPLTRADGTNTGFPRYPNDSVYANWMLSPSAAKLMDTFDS


What was measured:
Experiment in all cases: cell-based or functional assay
Pim-3(h) = Pim-3(h) (human, UniProt Q86V86 1-326)
Src(T341M)(h) = Src(T341M)(h) (human, UniProt P12931 1-536, limits assumed)
CK1γ2(h) = CK1γ2(h) (human, UniProt P78368 1-415)
NEK3(h) = molecular target: T1, NEK3(h)
EphA4(h) = molecular target: T2, EphA4(h)
PrKX(h) = molecular target: T3, PrKX(h)
FGFR3(h) = FGFR3(h) (human, UniProt P22607 397-806)
ARK5(h) = molecular target: T4, ARK5(h)
ErbB4(h) = ErbB4(h) (human, UniProt Q15303 706-991, limits assumed)
PKBγ(h) = PKBγ(h) (human, UniProt Q9Y243 1-479, limits assumed)
CDK5/p35(h) = CDK5/p35(h) (human, UniProt Q00535 1-292; Q15078 1-307)
Ret(V804M)(h) = molecular target: T5, Ret(V804M)(h)

| Binder | % activity, 100 µM (Pim-3(h)) | % activity, 100 µM (Src(T341M)(h)) | % activity, 100 µM (CK1γ2(h)) | % activity, 100 µM (NEK3(h)) | % activity, 100 µM (EphA4(h)) | % activity, 100 µM (PrKX(h)) | % activity, 100 µM (FGFR3(h)) | % activity, 100 µM (ARK5(h)) | % activity, 100 µM (ErbB4(h)) | % activity, 100 µM (PKBγ(h)) | % activity, 100 µM (CDK5/p35(h)) | % activity, 100 µM (Ret(V804M)(h)) |
| --- | --- | --- | --- | --- | --- | --- | --- | --- | --- | --- | --- | --- |
| FAKLAARLYRKALARQLGVAA [MMI-0300] | 80% | 70% | 123% | 92% | 88% | 61% | 102% | 78% | 40% | 20% | 79% | 95% |
| KAFAKLAARLYRKALARQLGVAA [MMI-0400] | 80% | 76% | 114% | 85% | 65% | 76% | 0% | 69% | 0% | 41% | 76% | 87% |
